Laboratory results as given in US12247058 (Bristol-Myers Squibb, dated 2025).
Non-standard residues stand in square brackets, D forms with d. Phe(4-Ac) = CC(=O)c1ccc(C[C@H](N)C(=O)O)cc1

T1: human β-klotho, stably co-expressed with the Elk1-luciferase trans-reporter in HEK293 cells (HEK Luc Clone2) (human, UniProt Q86Z14 1-1044)
T1 sequence: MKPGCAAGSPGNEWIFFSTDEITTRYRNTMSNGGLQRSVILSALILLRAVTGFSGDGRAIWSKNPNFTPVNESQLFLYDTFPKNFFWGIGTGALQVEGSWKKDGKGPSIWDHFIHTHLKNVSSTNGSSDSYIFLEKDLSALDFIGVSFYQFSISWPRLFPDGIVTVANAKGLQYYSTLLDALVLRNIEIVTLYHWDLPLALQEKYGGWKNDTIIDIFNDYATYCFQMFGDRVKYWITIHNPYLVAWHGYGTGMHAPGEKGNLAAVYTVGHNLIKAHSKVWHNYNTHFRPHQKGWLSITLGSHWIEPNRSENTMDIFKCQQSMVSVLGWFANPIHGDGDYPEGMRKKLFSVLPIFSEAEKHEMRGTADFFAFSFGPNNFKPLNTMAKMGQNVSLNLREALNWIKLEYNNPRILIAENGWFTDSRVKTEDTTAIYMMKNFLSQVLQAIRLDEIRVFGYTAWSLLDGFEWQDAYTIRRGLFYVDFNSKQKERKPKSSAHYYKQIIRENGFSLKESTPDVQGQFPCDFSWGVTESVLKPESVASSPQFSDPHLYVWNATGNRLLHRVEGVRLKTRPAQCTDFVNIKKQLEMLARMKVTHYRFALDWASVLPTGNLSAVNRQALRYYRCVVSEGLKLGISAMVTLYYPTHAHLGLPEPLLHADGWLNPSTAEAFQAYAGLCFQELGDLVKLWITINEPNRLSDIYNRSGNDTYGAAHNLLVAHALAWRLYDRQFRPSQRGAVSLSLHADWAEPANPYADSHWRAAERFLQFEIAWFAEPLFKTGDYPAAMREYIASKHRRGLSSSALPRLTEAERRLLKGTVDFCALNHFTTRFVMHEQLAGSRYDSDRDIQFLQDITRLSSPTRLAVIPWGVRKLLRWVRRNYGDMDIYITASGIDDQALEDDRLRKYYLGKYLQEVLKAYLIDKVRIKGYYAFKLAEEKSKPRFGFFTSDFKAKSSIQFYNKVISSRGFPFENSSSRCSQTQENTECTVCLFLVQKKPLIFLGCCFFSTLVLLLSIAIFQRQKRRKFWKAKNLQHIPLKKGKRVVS

T2: human β-klotho with a C-terminal FLAG tag, stably expressed in a clonal HEK-293 cell line (human, UniProt Q86Z14 1-1044)
T2 sequence: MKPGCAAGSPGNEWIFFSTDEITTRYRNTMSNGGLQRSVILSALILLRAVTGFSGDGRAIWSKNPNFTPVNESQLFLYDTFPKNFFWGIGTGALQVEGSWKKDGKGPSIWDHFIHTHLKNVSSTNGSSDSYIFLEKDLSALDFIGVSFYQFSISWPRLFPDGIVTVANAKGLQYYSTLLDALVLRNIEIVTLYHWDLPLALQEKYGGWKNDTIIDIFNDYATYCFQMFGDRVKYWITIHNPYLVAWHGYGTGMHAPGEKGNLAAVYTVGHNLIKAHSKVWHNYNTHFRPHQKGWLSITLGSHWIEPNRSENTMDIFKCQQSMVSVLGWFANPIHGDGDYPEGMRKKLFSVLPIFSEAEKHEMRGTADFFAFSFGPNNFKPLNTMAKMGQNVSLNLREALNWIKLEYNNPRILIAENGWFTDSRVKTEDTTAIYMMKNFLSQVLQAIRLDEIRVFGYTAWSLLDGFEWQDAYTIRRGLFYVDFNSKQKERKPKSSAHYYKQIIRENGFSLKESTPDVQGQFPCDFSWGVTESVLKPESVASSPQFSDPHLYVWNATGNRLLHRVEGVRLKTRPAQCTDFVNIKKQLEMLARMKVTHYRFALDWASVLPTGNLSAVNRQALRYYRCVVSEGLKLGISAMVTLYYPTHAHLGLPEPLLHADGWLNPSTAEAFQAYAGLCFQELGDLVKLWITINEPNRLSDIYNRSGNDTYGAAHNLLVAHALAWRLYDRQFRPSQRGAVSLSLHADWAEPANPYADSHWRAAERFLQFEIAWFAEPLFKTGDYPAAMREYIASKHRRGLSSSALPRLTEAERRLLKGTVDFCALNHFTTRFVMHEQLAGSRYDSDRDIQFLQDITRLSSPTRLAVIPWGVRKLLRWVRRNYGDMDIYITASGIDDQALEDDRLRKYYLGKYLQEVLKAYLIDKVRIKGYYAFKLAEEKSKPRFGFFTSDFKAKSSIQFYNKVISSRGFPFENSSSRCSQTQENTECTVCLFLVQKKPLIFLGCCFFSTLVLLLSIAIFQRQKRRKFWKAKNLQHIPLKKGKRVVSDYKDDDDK


Legend:
Test in all cases: cell-based or functional assay
[1] = target: T1, human β-klotho, stably co-expressed …
[2] = target: T1, human β-klotho, stably co-expressed …; remark: listed apart in the source
[3] = target: T2, human β-klotho with a C-terminal FLAG …
[4] = target: T2, human β-klotho with a C-terminal FLAG …; remark: listed apart in the source

Row | Binder | Geometric Mean EC50, Elk1-luciferase assay [1] [nM] | EC50 (geometric mean), 5 hour Elk1-luciferase assay [2] [nM] | pEC50, 5 hour Elk1-luciferase assay [2] [log M] | EC50 in the pERK assay [3] [nM] | pERK EC50 [4] [nM]
1 | Compound 181 [Fc(hIgG1f_1.1_186)-L7-FGF21 (Cmp. 2)] (Fc fusion) EPKSSDKTHTCPPCPAPEAEGAPSVFLFPPKPKDTLMISRTPEVTCVVVDVSHEDPEVKFNWYVDGVEVHNAKTKPREEQYNSTYRVVSVLTVLHQDWLNGKEYKCKVSNKALPSSIEKTISKAKGQPREPQVYTLPPSREEMTKNQVSLTCLVKGFYPSDIAVEWESNGQPENNYKTTPPVLDSDGSFFLYSKLTVDKSRWQQGNVFSCSVMHEALHNHYTQKSLSLSPGKGGGGGSGGGSGGGGSHPIPDSSPLLQFGGQVRQRYLYTDDAQQTEAHLEIREDGTVGGAADQSPESLLQLKALKPGVIQILGVKTSRFLCQRPDGALYGSLHFDPEACSFRELLLEDGYNVYQSEAHGLPLHLGSGRGPARFLPLPGLPPAPPEPPGILAPQPPDVGSSDPLSMVEPSQGRSPSYAS | 0.8 |  |  |  | 
2 | Compound 32 (Non-Pegylated Control) (ligand) MHHHHHHPIPDSSPLLQFGGQVRQRYLYTDDAQQTEAHLEIREDGTVGGAADQSPESLLQLKALKPGVIQILGVKTSRFLCQRPDGALYGSLHFDPEACSFRELLLEDGYNVYQSEAHGLPLHLPGNKSPHRDPAPRGPARFLPLPGLPPALPEPPGILAPQPPDVGSSDPLSMVGPSQGRSPSYAS |  |  |  | 8 | 

More lines, now with the values ahead:

Row | Geometric Mean EC50, Elk1-luciferase assay [1] [nM] | EC50 (geometric mean), 5 hour Elk1-luciferase assay [2] [nM] | pEC50, 5 hour Elk1-luciferase assay [2] [log M] | EC50 in the pERK assay [3] [nM] | pERK EC50 [4] [nM] | Binder
3 | 5.9 | 5.4 | 8.27 | 28 |  | Pegylated Compound 2 (ligand) MHPIPDSSPLLQFGGQVRQRYLYTDDAQQTEAHLEIREDGTVGGAADQSPESLLQLKALKPGVIQILGVKTSRFLCQRPDGALYGSLHFDPEACSFRELLLEDGYNVY[Phe(4-Ac)](PEG about 30 kDa)SEAHGLPLHLGSGRGPARFLPLPGLPPAPPEPPGILAPQPPDVGSSDPLSMVEPSQGRSPSYAS
4 |  | 3.6 | 8.44 | 14 | 6.7 | Pegylated Compound 1 (ligand) MHPIPDSSPLLQFGGQVRQRYLYTDDAQQTEAHLEIREDGTVGGAADQSPESLLQLKALKPGVIQILGVKTSRFLCQRPDGALYGSLHFDPEACSFRELLLEDGYNVY[Phe(4-Ac)](PEG 30 kDa)SEAHGLPLHLPGNKSPHRDPAPRGPARFLPLPGLPPAPPEPPGILAPQPPDVGSSDPLSMVGPSQGRSPSYAS
